Residue numbers refer to the chain shown, from its start. In names and notes the source's numbering stands.
B1: ch4-4-20 G316D, A378V, D399E (antibody)
heavy: ASTKGPSVFPLAPSSKSTSGGTAALGCLVKDYFPEPVTVSWNSGALTSGVHTFPAVLQSSGLYSLSSVVTVPSSSLGTQTYICNVNHKPSNTKVDKKVEPKSCDKTHTCPPCPAPELLGGPSVFLFPPKPKDTLMISRTPEVTCVVVDVSHEDPEVKFNWYVDGVEVHNAKTKPREEQYNSTYRVVSVLTVLHQDWLNDKEYKCKVSNKALPAPIEKTISKAKGQPREPQVYTLPPSRDELTKNQVSLTCLVKGFYPSDIVVEWESNGQPENNYKTTPPVLESDGSFFLYSKLTVDKSRWQQGNVFSCSVMHEALHNHYTQKSLSLSPGK
B2: ch4-4-20 MgFc43 (Y319F, P352L, P396L) (antibody)
heavy: B1 heavy with D199G, Y202F, P235L, V261A, P279L, E282D
B3: ch4-4-20 Mut 10 (P396L, A330S, K288N) (antibody)
heavy: B1 heavy with K171N, D199G, A213S, V261A, P279L, E282D
notes: also called Mut10(0225); K288N, A330S, P396L
B4: ch4-4-20 MgFc39 (E293V, Q295E, A327T) (antibody)
heavy: B1 heavy with E176V, Q178E, D199G, A210T, V261A, E282D
B5: ch4-4-20 Mut23 (antibody)
chain 1: not shown
chain 2: DVVMTQTPLSLPVSLGDQASISCRSSQSLVHSNGNTYLRWYLQKPGQSPKVLIYKVSNRFSGVPDRFSGSGSGTDFTLKISRVEAEDLGVYFCSQSTHVPWTFGGGTKLEIKRTVAAPSVFIFPPSDEQLKSGTASVVCLLNNFYPREAKVQWKVDNALQSGNSQESVTEQDSKDSTYSLSSTLTLSKADYEKHKVYACEVTHQGLSSPVTKSFNRGEC

What was measured:
[1] = target: T1, FcγRIIIA (form not stated) (UniProt P08637 17-208, limits assumed); assay: ELISA
T1 construct: also called FcγRIIIA (ELISA)
T1 sequence (P08637 17-208 F176V limits assumed, form in doubt): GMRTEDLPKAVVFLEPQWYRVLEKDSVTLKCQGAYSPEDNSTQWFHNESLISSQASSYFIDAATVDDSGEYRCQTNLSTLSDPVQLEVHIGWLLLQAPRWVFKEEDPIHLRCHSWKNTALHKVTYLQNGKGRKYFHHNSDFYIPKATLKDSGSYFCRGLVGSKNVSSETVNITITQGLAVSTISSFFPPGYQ

[2] = target: T2, FcγRIIB (form not stated) (UniProt P31994 43-217, limits assumed); assay: ELISA
T2 construct: also called FcγRIIB (ELISA)
T2 sequence (looked up): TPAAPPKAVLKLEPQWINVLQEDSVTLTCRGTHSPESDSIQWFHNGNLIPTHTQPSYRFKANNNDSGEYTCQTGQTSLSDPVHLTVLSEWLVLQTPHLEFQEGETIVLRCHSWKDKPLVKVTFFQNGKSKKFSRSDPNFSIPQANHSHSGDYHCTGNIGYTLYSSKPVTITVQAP

[3] = target: T1, FcγRIIIA (form not stated); assay: ELISA; remark: listed apart in the source
[4] = target: T2, FcγRIIB (form not stated); assay: ELISA; remark: listed apart in the source
[5] = target: T3, FcγRIIIA 158V, soluble monomer (extracellular region joined to linker-AVITAG) (UniProt P08637 17-208, limits assumed); assay: BIAcore, ch4-4-20
T3 construct: extracellular domain; also called 3aV158; 3A 158V
T3 sequence (P08637 17-208 F176V limits assumed): as the sequence (P08637 17-208 F176V limits assumed, form in doubt) above
Procedure: (§1) Following this, the unreacted active esters were “capped off” with an injection of 1M Et-NH2. Once a suitable surface was prepared, ch 4-4-20 antibodies carrying the Fc mutations were passed over the surface by one minute injections of a 20 μg/mL solution at a […] flow rate. […] Next, dilution series of the receptor (FcγRIIIA and FcγRIIB-Fc fusion protein) in HBS-P buffer (10 mM HEPES, 150 mM NaCl, 0.005% Surfactant P20, 3 mM EDTA, pH 7.4) were injected onto the surface at 100 μL/min Antibody regeneration between different receptor dilutions was carried out by single 5 second injections of 100 mM NaHCO₃ pH 9.4; 3M NaCl.
(§2) Binding curves for two different concentrations (200 nM and 800 nM for FcγRIIIA and 200 nM and 400 nM for FcγRIIB fusion protein) were aligned and responses adjusted to the same level of captured antibodies, and the reference curves were subtracted from the experimental curves. Association and dissociation phases were fitted separately. Dissociation rate constant was obtained for interval 32-34 sec of the dissociation phase; association phase fit was obtained by a 1:1 Langmuir model and base fit was selected on the basis Rₘₐₓ and chi² criteria.
(§3) Secondary Screen of Mutants via BIAcore: Mutants that were selected in the above screens were then analyzed by BIAcore to determine the kinetic parameters for binding FcγRIIIA (158V) and FcγRIIB. The method used was similar to that disclosed in Section 7.1, supra.

[6] = target: T4, FcγRIIB-Fc fusion protein, soluble dimer: extracellular domain of FcγRIIB fused to the hinge-CH2-CH3 domain … (human, UniProt P31994 43-217, limits assumed); assay: BIAcore, ch4-4-20
T4 construct: extracellular domain; also called FcRIIB-Fc; 2bfcagl; not shown: human IgG2 hinge-CH2-CH3
T4 sequence (looked up): T2 sequence (looked up)
Procedure: as §1, §2, §3

[7] = target: T4, FcγRIIB-Fc fusion protein, soluble …; assay: ELISA
[8] = target: T4, FcγRIIB-Fc fusion protein, soluble …; assay: BIAcore, Ab on BSA-FITC
Procedure: as §1, §2

[9] = target: T5, soluble monomeric FcγRIIIA, the extracellular region of FcγRIIIA joined to the linker-AVITAG sequence (UniProt P08637 17-208); assay: BIAcore, Ab on BSA-FITC
T5 construct: extracellular domain; also called FcRIIIA

| Binder | ELISA binding, fold vs Wt [1] [X] | fold increase vs WT [3] [x] | Koff WT/Mut [5] [ratio] | Koff WT/Mut [6] [ratio] | ELISA, OD [7] [OD] | Kd [8] [nM] | koff [8] [s⁻¹] | also measured |
| --- | --- | --- | --- | --- | --- | --- | --- | --- |
| B1 | 1.5 | 1.5 | – | – | – | – | – | ELISA binding, fold vs Wt [2]: 14 X; fold increase vs WT [4]: 14 x |
| B2 | – | – | 1.23 | 2.29 | – | – | – | – |
| B3 | – | – | – | – | 1.2 | 41.3 | 0.05 | – |
| B4 | 1.4 | 0.4 | 0.86 | 1.3 | – | – | – | – |
| B5 | – | – | – | – | 0.1 | 108 | 0.107 | Kd [9]: 70.2 nM; koff [9]: 0.105 s⁻¹; kon [9]: 1.43e+06 M⁻¹ s⁻¹ |
